The text below walks through data of the RNAGym collection of RNA variant scans (doi:10.1073/pnas.2313332121).

To fix the notation:
B1: TPR t1 (parent)
chain: GACCAAUCUGCCCUCAGAGCUCGAGAACAUCUUCGGAUGCAGAGGAGGCAGGCUUCGGUGGCGCGAUAGCGCCAACGUCCUCAACCUCCAAUGCAUCCCACCACAUGAUGAUGCCUGAAGAGCCUUGGUUUUUUG

In the series the parent is B1. Description: polymerase ribozyme fitness, log enrichment relative to wild type (log ratio); higher = more active; in vitro selection for triplet polymerase activity. The method, boiled down: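 To select mutant libraries of each subunit of a heterodimeric triplet polymerase ribozyme, built by PCR and transcribed, each was annealed with a biotinylated primer, partner subunit and triplets, then incubated frozen at −7 °C. Extended constructs were gel-excised, captured on streptavidin beads and amplified by RT-PCR, in one round carried out in triplicate. Illumina sequencing of input and output libraries kept genotypes with ≥10 input reads and ≥1 read per output. Fitness is the base-2 logarithm of genotype enrichment relative to wild-type enrichment, from inverse-variance-weighted replicate averages.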
On to GACCAAUCUGCCCUCAGAGUUCGAGAACAUCUUCGGAUGCAGAGGAGGCUGGCUGCGGUGGCGCGAUAGCGCCAAUGUCCUCAACCUCCAAUGCAUCCCACCACAUGAUGACGCCUGAAGAGCCUUAGUUUUUUG [C20U A50U U55G C76U U112C G127A], for which the “polymerase ribozyme fitness (log ratio)” value was -4.02.

Turning to GACCAAUCUGCCCUCAGAGUUCGAGAACAUCUUCGGUUGCAGAGGAGGCAGGCUUCGGUGGCGCGAUAGCGCCAACGUUCUCAACCUCCAAUGCAUCCCACCACAUGAUGAAGCCUGAAGAGCCUUGGUUUUUUG [C20U A37U C79U U112A], the “polymerase ribozyme fitness (log ratio)” value was 0.591.

For GACCAAUCUGCCCUCAGAGUUCGAGAACAUCUUCGGAUGCAGAGGAGGCAGGCUUCGGUGGCGCGAUAGCGCCAACGUCCUCAACCUCCAAUGCAUCCCACCACAUGAUGCUGCCUGAAGAGCCUUGGUUUUUUG [C20U A111C], the “polymerase ribozyme fitness (log ratio)” value is -1.7. Under GACCAAUCUGCCCUCAGAGUUCGAGAACAUCUUCGGAUGCAGUGGAGGCAGGGUUCGGUGGCGCGAUAGCGCCAACGUCCUCAACCUCCAAUGCAUCCCACCACAUGAUGAUGCCUGAAGAGCCUUGGUUUUUUG [C20U A43U C53G] stands -2.28; under GACCAAUCUGCCCUCAGAGUUCGAGAUCAUCUUCGGAUGCAGAGGAGGCAGGCUUCGGUGGCGUGAUAGCGCCAACGUCCUCAACCUCCAAUGCAUCCCACCACAUGAUGAUACCUGAAGAGCCUUGGUUUUUUG [C20U A27U C64U G113A], -3.6. For GACCAAUCUGCCCUCAGAGUUCGAGAACAUCUUCGGAUGCAGAGGAGGCAGGCUUCGGUGGCGCGAUAGCGCCAGCGUCCUCAACCUCCAAUGCAUCCCACCACAUGAUGAUGCCUGAAGAGCCUUGGUUUUUUG [C20U A75G] the value was -0.924; for GACCAAUCUGCCCUCAGAGUUCGAGAACGUCUUCGGAUGCAGAGGAGGCAGGCUUCGGUGUCGCGAUAGCGCCAACGUCCUCAACCUCCAAUGCAUCCCACCACAUGAUGAUGCACUAAGAGCCUUGGUUUUUUG [C20U A29G G61U C115A U116C G117U], -1.83; for GACCAAUCUGCCCUCAGAGUUCGAGAACAUCUUGGGAUGCAGUGGAGGCAGGCUUCGGUGGCGCGAUAGUGCCAACGUCCUUAACCUCCAAUGCAUCCCACCACAUGAUGAUGACUGAAGAGCCUUGGUUUUUUG [C20U C34G A43U C70U C82U C114A], -7.14. For GACCAAUCUGCCCUCAGAGUUCGAGAACAUCUUCGGAUGCAGAGGAGGCAGGCUUCGGUGGCGCGAUAGCGCCAACGUCCUCCACCUCCAAUGCAUCCCACCACAUGAUGAUGCCUGAAGAGCCUUGGUUUUUUG [C20U A83C] the value was -1.52; for GACCAAUCUGCCCUCAGAGUUAGAGAACAUCUUCGGAUGCAGAGGAGGCCGGCUUCGGUGGCGCGAUAUCGCCAACGUCCUCAACCUCCAAUGCAUCCCACCACAUGAUGAUGCCUGAAGAGCCUUGGUUUUUUG [C20U C22A A50C G69U], -2.32; for GACCAAUCUGCCCUCAGAGUUCGAGAACAUCUUCGGAUGCAGAGGAGGUAGGCUUCGGUGGUGCGAUAACGCCAACGUCCUCAACCUCCAAUGCAUCCCACCACAUGAUGAUGCCUGAAGAGCCUUGGUUUUUUG [C20U C49U C62U G69A], -5.65. With GACCAAUCUGCCCUCAGAGUUCGAGAACCUCUUCGGAUGCAGAGGAGGCAGGCUUCGGUGGCGCGAUAGCGCCAACGUCCUCAACCUCCAAUGCAUCCCACCACAUGAUGAUGCCUGAAAAGCCUUGGUUUUUUG [C20U A29C G120A], the “polymerase ribozyme fitness (log ratio)” value was -3.64. For GACCAAUCUGCCCUCAGAGUUCGAGAACGUCUUCGGAUGCAGAGGAGGAAGGCUUCGAUGGCGCGAUAGCGCCUACGUCCACAACCUCCAAUGCAUCCCACCACAUGAUGAAGCCUGAAGAGCCUUGGUUUUUUG [C20U A29G C49A G58A A74U U81A U112A] the value was -3.14; for GACCAAUCUGCCCUCAGAGUUCGAGAACAUCUUCGGAUGCAGAGGAGGCAGGAUUCGGUGGCGCGAUAGCGCCAACGUCCUCAACCUCCAAUGCAUCCCACCACAUGAUGAUGCCUGAAGAGCCUUGGUUUUUUG [C20U C53A], -3.19; for GACCAAUCUGCCCUCAGAGUUCGAGAACAUCUUCGGAUGCAGAGGAGGUAGGCUUCGGUGGCGCGAUAGCCCCAACGUCCUCAACCUCCUAUGCAUCCCACCACAUGAUGAUGCCUUAAGAGCCUUGGUUUUUUG [C20U C49U G71C A90U G117U], -6.09. For GACCAAUCUGCCCUCAGAGUUCGAGAACAUCUUCGGAUGCAGAGGAGGCAGGCUUCGGUGGCGCGAUAGCGCCAACGUCCUCAACCUCCAAUGCGUCCCACCACAUGAUGAUGCCUGAAGAGCCUUGGUUUUUUG [C20U A95G] the value was -1.47. For GACCAAUCUGCCCUCAGAGUUCGAGAACAUCUUCGGAUGCAGAGGAGGCUGGCUUCGGUGGCGCGAUAGCGCCAACGUCCUCCACCUCCAAUGCAUCCCACCACAUGAUGAUGCCUGAAGAGCCUUGGUUUUUUG [C20U A50U A83C] the value was -5.22; for GACCAAUCUGCCCUCAGAGUUCGAGAGCAUCUUCGGAUGCAGAGGAGGCAGGCUUCGGUGGCGCGAUAGCGCCAACGUCCUCAACCUCCAAUGCAUCCCACCACAUGAUGAUGCCUGAAGAGCCUUGGUUUUUUG [C20U A27G], -3.07. In the case of GACCAAUCUGCCCUCAGAGUUCGAGAACAUCUUCGGAUGCAGAGGAGGCAGGAUUCGGUGGCGCGAUAGCGCCAACGUCCUCAACCUCCAAUGCAUCCCACCACAUGAUGGUGUCUGAAGAGCCUUGGUUUUUUG [C20U C53A A111G C114U], the “polymerase ribozyme fitness (log ratio)” value is -7.62. Under GACCAAUCUGCCCUCAGAGUUCGAGAACAUCUUCGGAUGUAGAGGAGGCAGGCUUCGGUGUCGCGAUAGCGCCAACGUCCUCAACCUCCAAUGCAGCCCACCACAUGAUGAUGCGUGAAGAGCCUUGGUUUUUAG [C20U C40U G61U U96G C115G U134A] stands -3.07; under GACCAAUCUGCCCUCAGAGUUCGAGAACAUCUUCGGAUGUAGUGGAGGCAGGCUUCGGUGGCGCGAUAGCGCCAACGUCCUCAACCUCCAAUUCAUCCCACCACAUGAUGAUGCCUGAAGAGCCUUGGUUUUUUG [C20U C40U A43U G93U], -4.35.
